In article PMC10723142, “Structures of the P. aeruginosa FleQ-FleN master regulators reveal large-scale conformational switching in motility and biofilm control” (Proceedings of the National Academy of Sciences of the …, 2023):

B1: full-length untagged FleQ (FleQ^FL) (natural protein)
chain: not shown
notes: FleQ, P. aeruginosa PAO1 (amplified from genomic DNA), residues 1-490 covering the full-length protein; untagged, from pRSFDuet1*; also called FleQ^1-490; wild-type FleQ; source: E. coli BL21 Star (DE3), coexpressed with His6-FleN variants; in lysate (IMAC co-purification) and purified as complex (IMAC, SEC) for cryo-EM
B2: FleQ receiver and ATPase domain tandem (FleQ^REC-AAA+) (domain or fragment)
chain: not shown
notes: FleQ, P. aeruginosa PAO1, residues 1-394 (REC and AAA+ domains); untagged, from pRSFDuet1*; also called FleQ^1-394; HTH-truncated FleQ; source: E. coli BL21 Star (DE3), coexpressed with His6-FleN variants; in lysate (IMAC co-purification) and purified as complex (IMAC, SEC) for cryo-EM
B3: full-length FleN^D48A (His6 tag cleaved) (natural protein)
chain: MKQMGSMHPVQVIAVTGGKGGVGKTNVSVNLALALADLGRRVMLLDAALGLANVDVLLGLTPKRTLADVIEGRCELRDVLLLGPGGVRIVPAASGTQSMVHLSPMQHAGLIQAFSDISDNLDVLVVDTAAGIGDSVVSFVRAAQEVLLVVCDEPTSITDAYALIKLLNRDHGMTRFRVLANMAHSPQEGRNLFAKLTKVTDRFLDVALQYVGVIPYDESVRKAVQKQRAVYEAFPRSKASLAFKAVAQKVDSWPLPANPRGHLEFFVERLVQHPATGSAV
notes: FleN, P. aeruginosa PAO1, full-length with D48A; pProEx-Htb-cloned, tag cleaved by HRV3c protease; source: E. coli BL21 Star (DE3), coexpressed with FleQ^REC-AAA+, purified as complex (IMAC, HRV3c cleavage, SEC); not shown: His6, N-terminal, cleaved
B4: His6-tagged full-length FleN^D48A (tag not cleaved) (natural protein)
chain: MKQMGSMHPVQVIAVTGGKGGVGKTNVSVNLALALADLGRRVMLLDAALGLANVDVLLGLTPKRTLADVIEGRCELRDVLLLGPGGVRIVPAASGTQSMVHLSPMQHAGLIQAFSDISDNLDVLVVDTAAGIGDSVVSFVRAAQEVLLVVCDEPTSITDAYALIKLLNRDHGMTRFRVLANMAHSPQEGRNLFAKLTKVTDRFLDVALQYVGVIPYDESVRKAVQKQRAVYEAFPRSKASLAFKAVAQKVDSWPLPANPRGHLEFFVERLVQHPATGSAV
notes: pProEx-Htb-cloned; source: E. coli BL21 Star (DE3), coexpressed with FleQ^FL, purified as complex (IMAC, SEC), without tag cleavage; not shown: His6, N-terminal, kept

Legend:
[1] = target: B4; test: cryo-EM structure; c-di-GMP-free complex, coexpressed and co-purified (IMAC, SEC), with AppCp (100 uM); 20 mM HEPES pH 8.0, 250 mM NaCl, 2 mM MgCl2, 2% glycerol; C2 symmetry; conditions: both partners purified
[2] = target: the molecule itself; test: as above
[3] = target: B3; test: cryo-EM structure; c-di-GMP-bound complex, coexpressed and co-purified (IMAC, tag cleavage, SEC with 2 uM c-di-GMP); 200 uM AppCp and 4 uM c-di-GMP before grid preparation; conditions: both partners purified
[4] = target: the molecule itself; test: as above
[5] = target: B2; test: as above; conditions: both partners purified
[6] = target: B1; test: cryo-EM structure; c-di-GMP-free complex, coexpressed and co-purified (IMAC, SEC), with AppCp (100 uM); 20 mM HEPES pH 8.0, 250 mM NaCl, 2 mM MgCl2, 2% glycerol; C2 symmetry; conditions: both partners purified

What does the source list for B1?
stoichiometry N [1]: 2 FleQ per FleN (4:2); binding result [2]: binds

For B2, which “stoichiometry N” value [3] is on record?
Its value is 1.5 FleQ per FleN (3:2).

Does B2 bind [4]?
Result: binds

What does the source list for B3?
binding result [5]: binds; binding result [4]: binds

What does the source list for B4?
binding result [6]: binds; binding result [2]: binds
